± gives the uncertainty stated by the source.

This data set is described as follows: amyloid nucleation score (Sup35N fusion, yeast selection) (log enrichment); library NNK3; higher = more nucleation; inactive = no reads after selection. Summed up:
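Sup35N was fused to peptides of 20 random codons and expressed in psi-negative yeast, which were induced with 100 μM copper sulfate for 24 hours and then grown on medium lacking adenine and uracil for 7 days at 30°C. Plasmid inserts from input and output were sequenced on Illumina. The nucleation score is the DiMSum log enrichment of output over input reads, centred on the mode score of non-aggregating sequences. Sequences with under 100 input reads were left out, and random libraries had three technical output replicates.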
For the substance AAISVFCEVFK, the amyloid nucleation score entry is “inactive”.

On to AAVHWSTIYYSLGMVKDEGG, for which the amyloid nucleation score result is “inactive”.

ACCIAGL: the amyloid nucleation score result is “inactive”.

For the substance ACCQTDRFRFEVALVGFVVG, the amyloid nucleation score result was “inactive”.

On to ACFEAICGYSTLSQ, for which the amyloid nucleation score entry is “inactive”.

Take ACLIRPRFYPVNHNSVVASL: the amyloid nucleation score result was “inactive”.

In the case of ACMNSSSRSVMLLMCYYFSN, the amyloid nucleation score entry was “inactive”.

As to ACSRGKCFTNRGSRWHLFVC, the amyloid nucleation score result was “inactive”.

For ACYNSKRMGGMYNSRVLDHD, the amyloid nucleation score entry was “inactive”.

Consider ADCPCYVTGCWLSYWMLYI, for which the amyloid nucleation score entry is “inactive”.

For ADCPPRYRLPWGELGLRGEI, the amyloid nucleation score entry is “inactive”.

With ADMGGSVGHVSNKSVSSNLL, the amyloid nucleation score result was “inactive”.

For the substance ADVGGD, the amyloid nucleation score result was “inactive”.

Consider ADVLFKFNSDMRRS, for which the amyloid nucleation score result is “inactive”.

ADVLTNRIGPCIKEGIKLGI: the amyloid nucleation score result is “inactive”.

AEARTPIECVC: the amyloid nucleation score entry was “inactive”.

On to AEFYERLPFDIPLHSYFNAW, for which the amyloid nucleation score entry was “inactive”.

Turning to AEVPEFTLYVSFYSWVYFRL, the amyloid nucleation score entry is “inactive”.

For AEWLSCLRWIGK, the amyloid nucleation score result is “inactive”.

For the substance AFCRNRTNVCMICYLRSG, the amyloid nucleation score was 0.907 ± 0.17.

As to AFFGCCYGRDLVEHW, the amyloid nucleation score stood at 1.49 ± 0.1.

AFFVVTIFVVNTSCDNVLVS had an amyloid nucleation score of 1.03 ± 0.11.

Turning to AFSISVLM, the amyloid nucleation score entry was “inactive”.

AGCIGFNVFEH: the amyloid nucleation score result was “inactive”.

Regarding AGGSLWKAL, the amyloid nucleation score result was “inactive”.

As to AGIVRWVVFISSYWGPLLLL, the amyloid nucleation score entry was “inactive”.

On to AGNIACVLSLCTYNARYRTR, for which the amyloid nucleation score was 3.19 ± 0.068.

In the case of AGTKSLRNYGWCLYDGGFYH, the amyloid nucleation score entry is “inactive”.

For AHEQTQSDLPGVELPRWDR, the amyloid nucleation score result was “inactive”.

In turn, AHREFLFRMTVWNITKGLIL gave an amyloid nucleation score of -0.481 ± 0.9.

Regarding AHRQMGNFR, the amyloid nucleation score is -0.701 ± 1.2.

As to AHVKLNDVFSWI, the amyloid nucleation score result is “inactive”.

On to AHVSLVSLRKRLPYFGFASV, for which the amyloid nucleation score entry was “inactive”.

In turn, AIGDVTVGRIHFDMHCGLGR yielded an amyloid nucleation score of -0.955 ± 1.2.

Consider AILLNWNCVNFPCFEIYPYL, for which the amyloid nucleation score came to 1.7 ± 0.063.

In the case of AILSTLVNTVNRELRQGRLM, the amyloid nucleation score result is “inactive”.

Turning to AIRGVARLRVMDRVSALPLR, the amyloid nucleation score entry was “inactive”.

Take AITHRIDS: the amyloid nucleation score entry is “inactive”.

Turning to AITYTTSLKVSFVSKGVSGA, the amyloid nucleation score worked out at 0.614 ± 0.32.

As for AIYRIWCYGA, the amyloid nucleation score is -0.088 ± 0.9.

In turn, AKFSQVLLLQWGSSPDIDRE yielded an amyloid nucleation score of 1.11 ± 0.18.

Substance AKWCVF yielded an amyloid nucleation score of -0.714 ± 2.4.

Turning to ALCRASEVIWWARVSGGCVL, the amyloid nucleation score result was “inactive”.

Consider ALFSFDNSNYMVSNGAIGRV, for which the amyloid nucleation score was -0.167 ± 0.75.

In turn, ALFSKYIYITFNYYFMQKWL returned an amyloid nucleation score of 2.54 ± 0.054.

As for ALSGSGLRLTPMKQ, the amyloid nucleation score entry is “inactive”.

ALSPHSNCIYNCLSCCCDTD displayed an amyloid nucleation score of 0.655 ± 0.15.

For AMDRTNNIEDEQWIMNKYWV, the amyloid nucleation score result is “inactive”.

For AMMVRCFRDPKHEK, the amyloid nucleation score result was “inactive”.

Take AMNFYI: the amyloid nucleation score result is “inactive”.

Substance AMQIYTLVMGSPRDFDYWKV came in with an amyloid nucleation score of 1.14 ± 0.11.

For AMSTDLLSVACL, the amyloid nucleation score entry was “inactive”.

ANECDGVYNGAKCSRWNFLL: the amyloid nucleation score result was “inactive”.

Substance ANICVFFSLDWFCPLFLSHK gave an amyloid nucleation score of 2.34 ± 0.079.

ANMCNCKAIHRFNKFNICSR: the amyloid nucleation score entry was “inactive”.

Substance APLYTANAMHSRCILSWVFL yielded an amyloid nucleation score of 2.25 ± 0.082.

In the case of APRFRFQTVHRSFVRSRKLR, the amyloid nucleation score entry was “inactive”.

For AQFVWMKLHICRTDLGESH, the amyloid nucleation score result was “inactive”.

Take ARDCGRFIFLWWRYSLTKRH: the amyloid nucleation score result is “inactive”.

For the substance ARICIAACIRAICDGFSGRR, the amyloid nucleation score entry was “inactive”.

Regarding ARISEFTESWNRRCYTLRYC, the amyloid nucleation score result was “inactive”.

Turning to ARKMTIRPPLFPAWHSFELK, the amyloid nucleation score result is “inactive”.

For the substance ARSDGLF, the amyloid nucleation score entry is “inactive”.

For ARSDHYYAVIGDVRMNILPI, the amyloid nucleation score result is “inactive”.

ARTIELMECNISVNSIVWQG had an amyloid nucleation score of 1.98 ± 0.089.

For the substance ARVVVG, the amyloid nucleation score result is “inactive”.

For the substance ARWGDSLSRDLTSGYLFGVG, the amyloid nucleation score result was “inactive”.

Regarding ASCSVVEKISFTDPGIQWIR, the amyloid nucleation score is -0.032 ± 1.1.

For the substance ASDSDTCCGFVRGAVYWRLT, the amyloid nucleation score was -0.117 ± 0.84.

As to ASFFNILNPISIVVILKRFC, the amyloid nucleation score entry is “inactive”.

On to ASGSHSVT, for which the amyloid nucleation score result is “inactive”.

ASHHVDSTYDTYYWQHKAKK: the amyloid nucleation score entry was “inactive”.

ASKENCLIVFIVYQSIIETC: the amyloid nucleation score result was “inactive”.

Regarding ASLRYYGMAVVSSVYKMVVV, the amyloid nucleation score result is “inactive”.

For the substance ASMYIMFTTVNKILFIEISD, the amyloid nucleation score was 1.69 ± 0.056.

In turn, ASNCDPMIHFLMHKVYKSFY registered an amyloid nucleation score of -0.103 ± 0.64.

In the case of ASPYTGDWDTVMC, the amyloid nucleation score entry is “inactive”.

Turning to ASRSDCTRYIMTTMIWWHFP, the amyloid nucleation score result was “inactive”.

As for ASSPLITRDDKAHGLEFHSY, the amyloid nucleation score result is “inactive”.

With ASVPAN, the amyloid nucleation score entry was “inactive”.

As for ASVRSGYDMVGFGILFGQMS, the amyloid nucleation score result was “inactive”.

Substance ASWFYNIKKLNCCHFVQFAD showed an amyloid nucleation score of 1.64 ± 0.09.

With ASWPNYYWSNSLILFRDKCV, the amyloid nucleation score is 0.019 ± 0.3.

ASYEDFWDNLA: the amyloid nucleation score is -0.239 ± 1.4.

ASYLCVFCDRAFQCGPYRYI came in with an amyloid nucleation score of 2.22 ± 0.092.

For the substance ASYYF, the amyloid nucleation score entry is “inactive”.

Take ATFIFSDRQSHIHLYSNTQY: the amyloid nucleation score result is “inactive”.

Turning to ATIYICGLNPNRVAACIVLE, the amyloid nucleation score result was “inactive”.

With ATLRAFATVYFHLVTHMFNF, the amyloid nucleation score entry was “inactive”.

In the case of ATPKPKGHY, the amyloid nucleation score result is “inactive”.

With ATSTTSLRVNLDHCAETFQN, the amyloid nucleation score is 0.238 ± 0.44.

Turning to ATTADLDRCSLFPKLRILRG, the amyloid nucleation score result is “inactive”.

In the case of ATTGR, the amyloid nucleation score entry was “inactive”.

With AVCEMKIHCYITVPDPSRPR, the amyloid nucleation score result is “inactive”.

In the case of AVECSDRTTARWLNVTYAYF, the amyloid nucleation score result is “inactive”.

Substance AVENSQFW displayed an amyloid nucleation score of 0.204 ± 0.38.

As to AVFSKGISCGLH, the amyloid nucleation score is -0.434 ± 1.1.

Turning to AVFTCCCPRK, the amyloid nucleation score entry was “inactive”.

As for AVIIDIHGINPMG, the amyloid nucleation score result is “inactive”.

On to AVIVVINNQTH, for which the amyloid nucleation score turned out to be 2.78 ± 0.077.

Regarding AVQQKSECFLFAFLILRDWV, the amyloid nucleation score result is “inactive”.

In the case of AVRCPLNMHLRGRAVVQYKG, the amyloid nucleation score result is “inactive”.

Take AVSFLWHTYVLGGLLKLFGG: the amyloid nucleation score entry is “inactive”.

In turn, AVSLCSDLYFVFGKWFGCEL gave an amyloid nucleation score of 1.11 ± 0.11.

Consider AVTYENRSNLIVKVLVI, for which the amyloid nucleation score is -0.363 ± 0.27.

With AVWRYSVSYTLYHSSGLLES, the amyloid nucleation score entry is “inactive”.

For the substance AVYLGGGHKSCRRSRRWLVS, the amyloid nucleation score result was “inactive”.

With AWASIDVSNAL, the amyloid nucleation score entry was “inactive”.

As for AWTGGSLGLTNI, the amyloid nucleation score result is “inactive”.

Consider AWVDLVLRGFKGYLTYRSLH, for which the amyloid nucleation score result was “inactive”.

On to AWVPMFFSLHMWHCNALNFC, for which the amyloid nucleation score entry was “inactive”.

For the substance AWWMLN, the amyloid nucleation score entry was “inactive”.

Take AYAQSYND: the amyloid nucleation score result was “inactive”.

As for AYELHKTPNGPSPSESLALI, the amyloid nucleation score result was “inactive”.

On to AYLGLLNSAKFFKYLRSYAW, for which the amyloid nucleation score result is “inactive”.

As to AYLYNFLWDTGSVIWVVGHL, the amyloid nucleation score result is “inactive”.

On to AYMRHFF, for which the amyloid nucleation score entry was “inactive”.

Turning to AYMVTKLVKR, the amyloid nucleation score entry is “inactive”.

AYSSWALMLGHTMCIYGGFR displayed an amyloid nucleation score of 1.55 ± 0.13.

On to AYSVSRSALRSEANRIGSR, for which the amyloid nucleation score result is “inactive”.

Take AYSVYVFALYRLNFYVLLRN: the amyloid nucleation score result was “inactive”.

As to AYSYAYGHCRYGSEVS, the amyloid nucleation score entry was “inactive”.

For AYWRREKMCSVPGGSWSGWV, the amyloid nucleation score entry is “inactive”.

Consider CAAIRGKL, for which the amyloid nucleation score entry is “inactive”.

CAHKSGQACKHGVF yielded an amyloid nucleation score of 0.533 ± 0.4.

In the case of CAKMHTCVYSFCTMEWSLTR, the amyloid nucleation score entry was “inactive”.

For the substance CALHRAGRTLVCFIYIFSGM, the amyloid nucleation score entry is “inactive”.

CAPLSVVWNSRGFM: the amyloid nucleation score entry was “inactive”.

Consider CASCEVFMLR, for which the amyloid nucleation score entry is “inactive”.

Take CASTDKNPFLPVNAAITYGL: the amyloid nucleation score result was “inactive”.

Take CCRLHRGISVNPILQSYGIM: the amyloid nucleation score entry is “inactive”.

As for CCSMARAITISGNVELKFD, the amyloid nucleation score result is “inactive”.

The values above are taken from the supplement of paper PMC12042874.
